# Source: paper PMC2731736, “cGMP-dependent protein kinase Iα associates with the antidepressant-sensitive serotonin transporter and dictates rapid modulation of serotonin uptake” (Molecular Brain, 2009)
# Experiments:
# [1] = target: T1, Recombinant protein kinase Cα (PKCα, human) (human, UniProt P17252 1-672); assay: kinase inhibition assay (Ki from enzyme kinetics); purified recombinant kinases with multiple concentrations of DT-2; saturating peptide substrate …; PKG isoforms activated with 1 μM cGMP; PKC activated with 50 μg/μL phospholipids and 100 ng/mL 12-O-tetradecanoylphorbol-13-acetate; conditions: both partners purified
# T1 construct: protein kinase C alpha, human, recombinant; source: bought: Calbiochem
# [2] = target: T2, cGMP-dependent protein kinase II (PKGII), recombinant (UniProt Q13237 1-762); assay: as above; conditions: both partners purified
# T2 construct: cGMP-dependent protein kinase II; also called cGK2; source: insect cell cultures, Bacmid baculovirus expression system, purified to apparent homogeneity
# T2 sequence (looked up): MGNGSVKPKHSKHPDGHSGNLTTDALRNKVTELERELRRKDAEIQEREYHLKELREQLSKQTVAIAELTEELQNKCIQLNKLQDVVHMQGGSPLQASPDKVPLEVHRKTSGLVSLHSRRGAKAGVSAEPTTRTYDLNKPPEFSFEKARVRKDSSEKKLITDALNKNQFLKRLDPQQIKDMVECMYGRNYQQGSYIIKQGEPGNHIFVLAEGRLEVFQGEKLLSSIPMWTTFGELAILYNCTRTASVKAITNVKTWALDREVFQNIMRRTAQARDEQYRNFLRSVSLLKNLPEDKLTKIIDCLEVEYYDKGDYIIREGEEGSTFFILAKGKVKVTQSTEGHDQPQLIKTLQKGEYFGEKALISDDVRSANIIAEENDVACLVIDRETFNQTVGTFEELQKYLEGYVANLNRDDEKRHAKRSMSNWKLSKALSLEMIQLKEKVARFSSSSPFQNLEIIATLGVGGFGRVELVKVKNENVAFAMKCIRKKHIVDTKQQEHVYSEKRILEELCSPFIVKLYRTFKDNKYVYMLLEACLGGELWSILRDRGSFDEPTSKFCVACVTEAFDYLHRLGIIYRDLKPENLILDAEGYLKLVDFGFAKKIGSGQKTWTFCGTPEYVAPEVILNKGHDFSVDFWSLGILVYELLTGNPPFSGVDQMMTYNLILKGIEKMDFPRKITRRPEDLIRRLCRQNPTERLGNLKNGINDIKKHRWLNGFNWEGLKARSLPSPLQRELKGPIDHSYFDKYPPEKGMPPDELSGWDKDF
binder,measurement,setting,value
YGRKKRRQRRRPPLRKKKKKH (also called peptide DT-2) [DT-2],Ki,[1],26.6 nM
same,Ki,[2],9.1 µM
